We go through 2 molecules from publication PMC12559329.

This data set concerns the target MutSβ (MSH2-MSH3) (human, UniProt P43246;P20585 1-934;1-1137). In words: EMSA; 2 mM ATP, 5 mM Mg2+, pUC19 competitor; 25 mM Tris-acetate pH 7.5, 1 mM DTT, 2 mM ATP, 5 mM MgCl2, 0.1 mg/ml albumin, 0.5 nM DNA, 3 ng/µl pUC19 competitor, 37 °C 30 min; native 6% PAGE. Particulars: protein: recombinant, tags: N-terminal FLAG on MSH2, N-terminal 6xHis on MSH3, copies: 1;1, label: 3'-32P on bottom strand (TdT, dCTP), 5' overhang 1 nt (G) on bottom.

B1: (CAG)4 loop DNA (dsDNA)
DNA 1: ACGTCAGAGTCGCTGCGCTCAGTCGTTCAACTGCTCAGCAGCAGCAGTAACTATCGTCTTGAATCCAACCCGGTAAGATACG
DNA 2: GCGTATCTTACCGGGTTGGATTCAAGACGATAGTTAAGCAGTTGAACGACTGAGCGCAGCGACTCTGACGT
modifications: biotin on both strands (position in bold, not recoverable)
Regarding B1, for the setting “12-nt extrahelical (CAG)4 loop in top strand”, the binding result was “binds”.

B2: (CAG)4 loop DNA with nick 3 nt downstream of loop (dsDNA)
DNA 1: ACGTCAGAGTCGCTGCGCTCAGTCGTTCAACTGCTCAGCAGCAGCAGTAA
DNA 2: TAACTATCGTCTTGAATCCAACCCGGTAAGATACG
DNA 3: GCGTATCTTACCGGGTTGGATTCAAGACGATAGTTAAGCAGTTGAACGACTGAGCGCAGCGACTCTGACGT
modifications: biotin on bottom strand; others unclear (bold lost)
With B2, the binding result (12-nt loop and nick in top strand, as printed both left and right oligos contain the TAA at the junction (3 nt redundant)) is “binds”.
